Read-outs that look alike come from different tables or passages of the source.
Assays:
[1] = test system: T1, RcopLS20-His(6) (Bacillus subtilis plasmid pLS20 (pLS20cat)), ORF:72252162; test: EMSA
T1 sequence: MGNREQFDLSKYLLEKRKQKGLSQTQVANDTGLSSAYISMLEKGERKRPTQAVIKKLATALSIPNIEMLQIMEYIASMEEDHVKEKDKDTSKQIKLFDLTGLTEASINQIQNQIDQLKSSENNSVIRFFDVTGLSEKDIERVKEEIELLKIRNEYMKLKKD

[2] = test system: T2, RappLS20-His(6) (Bacillus subtilis plasmid pLS20 (pLS20cat)), ORF:c1c32938; test: EMSA
T2 sequence: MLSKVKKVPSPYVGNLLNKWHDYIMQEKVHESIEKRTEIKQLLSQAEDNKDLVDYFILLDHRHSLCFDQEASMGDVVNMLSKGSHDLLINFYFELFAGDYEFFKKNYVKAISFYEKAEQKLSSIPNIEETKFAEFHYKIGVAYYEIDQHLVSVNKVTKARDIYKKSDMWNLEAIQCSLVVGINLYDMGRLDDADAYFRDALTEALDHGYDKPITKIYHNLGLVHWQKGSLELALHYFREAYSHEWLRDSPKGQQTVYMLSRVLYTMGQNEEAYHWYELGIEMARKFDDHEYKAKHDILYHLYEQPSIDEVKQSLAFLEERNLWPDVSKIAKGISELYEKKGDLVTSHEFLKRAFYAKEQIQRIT

[3] = test system: T1, RcopLS20-His(6) (Bacillus subtilis plasmid pLS20 (pLS20cat)), ORF:72252162; test: analytical ultracentrifugation
[4] = molecular target: Rap_(pLS20)-His(6) (Bacillus subtilis plasmid pLS20); test: AUC
[5] = molecular target: Rap_(pLS20)-His(6) (Bacillus subtilis plasmid pLS20); test: AUC; remark: listed apart in the source
[6] = molecular target: Rap_(pLS20)-His(6) (Bacillus subtilis plasmid pLS20); test: AUC; remark: listed apart in the source
[7] = molecular target: Rco_(pLS20)-His(6) (Bacillus subtilis plasmid pLS20); test: AUC

Molecule: CGCGGATCCTATACCACCTCGCAAAATAAACCCTGTATACGGTCTAGCGCTTACAATTTTTCGCGTTTTTTTTACTCAGTGAAAAAAACCGGTTAAAAATTTCACTGAAATACTTTACAGTTAAAAAAATGTCTGTTATCTTAGTGAAAGAGTCAGTGAAAAAAATGCAGAATAAGGTTTTTTGTTGTTAATCTCAAACAATTTCTGTGTAAAAAGAAC (double strand) [Fragment FIII (219 bp, operator OII)]
- binding [1]: binds
- binding [2]: no binding
- binding [3]: binds

Molecule: Phr*_(pLS20) (peptide)
- Kd [4]: 2.1 µM

Molecule: PhrF*-I5Y (peptide)
- Kd [4]: 4.2 µM

Molecule: PhrF*-R2K (peptide)
- Kd [4]: 4.2 µM

Molecule: Rap_(pLS20)-His(6) (natural protein)
- stoichiometry N [5]: 4
- stoichiometry N [4]: 4
- stoichiometry N [6]: 2

Molecule: Rco_(pLS20)-His(6) (natural protein)
- stoichiometry N ([4]; scale: mol of Rco_(pLS20) per mol of Rap_(pLS20)): 2.1
- stoichiometry N [7]: 4

Molecule: QRGMI [PhrF*]
- Kd [4]: 5.3 µM

— article PMC7641744
